Assay results reported in PMC11302882, “tRF-27 competitively Binds to G3BPs and Activates MTORC1 to Enhance HER2 Positive Breast Cancer Trastuzumab Tolerance”.

Columns and labels:
[1] = target: T1, HA-G3BP2 full length (UniProt Q9UN86 1-482); test: EMSA; not stated; BeyoMag Chemiluminescent RNA EMSA Kit per manufacturer; biotin-RNA pull-down from cell lysates; conditions: protein: recombinant; tags: N-terminal HA; chain copies: 2; label: biotin; predicted loop
T1 sequence: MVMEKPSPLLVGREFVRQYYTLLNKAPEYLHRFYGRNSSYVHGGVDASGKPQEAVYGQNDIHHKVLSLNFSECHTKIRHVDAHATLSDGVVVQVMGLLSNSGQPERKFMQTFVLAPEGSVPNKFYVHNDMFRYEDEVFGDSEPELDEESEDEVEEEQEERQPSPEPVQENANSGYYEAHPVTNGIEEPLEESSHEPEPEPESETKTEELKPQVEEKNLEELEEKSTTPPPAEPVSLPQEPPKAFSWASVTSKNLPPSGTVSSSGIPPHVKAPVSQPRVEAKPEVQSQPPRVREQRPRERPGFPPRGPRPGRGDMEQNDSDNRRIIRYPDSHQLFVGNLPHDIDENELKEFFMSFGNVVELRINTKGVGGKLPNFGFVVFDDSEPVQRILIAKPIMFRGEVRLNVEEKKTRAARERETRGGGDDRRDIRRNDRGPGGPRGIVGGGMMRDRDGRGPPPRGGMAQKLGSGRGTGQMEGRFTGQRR

[2] = target: T2, HA-G3BP2 lacking NTF2 domain (UniProt Q9UN86 1-10+134-482, internal_change); test: as above; conditions: protein: recombinant; tags: N-terminal HA; label: biotin; predicted loop
T2 sequence: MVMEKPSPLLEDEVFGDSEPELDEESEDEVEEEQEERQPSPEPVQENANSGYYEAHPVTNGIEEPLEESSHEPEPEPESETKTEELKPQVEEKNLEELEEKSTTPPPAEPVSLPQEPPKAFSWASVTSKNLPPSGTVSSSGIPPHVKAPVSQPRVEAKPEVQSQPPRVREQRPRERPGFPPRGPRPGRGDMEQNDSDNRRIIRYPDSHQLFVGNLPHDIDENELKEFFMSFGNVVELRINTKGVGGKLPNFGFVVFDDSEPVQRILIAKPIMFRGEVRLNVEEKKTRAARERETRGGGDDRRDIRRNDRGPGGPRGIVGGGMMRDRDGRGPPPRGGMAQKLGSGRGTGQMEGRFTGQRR

Q: Does UUGACUGCAGAUCAAGAGGUCCCCGGU (ssRNA) [tRF-27 (tRF-27-ZDXPHO53KSN)] bind [1]?
A: binds

Q: Does UUGACUGCAGAUCAAGAGGUCCCCGGU (ssRNA) [tRF-27 (tRF-27-ZDXPHO53KSN)] bind [2]?
A: no binding
